Here are results for six molecules from patent US20190367619A1 (ARGENX, published 2019).

Positions count from the first letter of the chain named.

Sequences and labels used below:
T1: cynomolgus galectin-10-His, WGS isoform (cynomolgus)
T1 construct: also called cynoGal10-WGS; not shown: His tag
T1 chain: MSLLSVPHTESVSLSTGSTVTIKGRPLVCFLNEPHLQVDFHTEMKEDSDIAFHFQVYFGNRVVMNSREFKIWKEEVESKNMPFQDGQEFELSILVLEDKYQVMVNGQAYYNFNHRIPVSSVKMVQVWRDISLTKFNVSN

T2: cynomolgus galectin-10-His, YRT isoform (cynomolgus)
T2 construct: also called cynoGal10-YRT; not shown: His tag
T2 chain: T1 chain with K23E, G24A, L31F, F69Y, K70R, I71T, S92R

T3: human galectin-10-His (human)
T3 construct: The last M of the tag may be Met1 of galectin-10; also called humanGal10-His; hGal10
T3 chain: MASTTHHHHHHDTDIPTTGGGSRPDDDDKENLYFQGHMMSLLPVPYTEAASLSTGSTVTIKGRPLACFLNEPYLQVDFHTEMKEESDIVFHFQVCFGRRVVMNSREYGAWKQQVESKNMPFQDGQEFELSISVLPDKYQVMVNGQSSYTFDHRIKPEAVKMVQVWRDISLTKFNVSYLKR

B1: 11F02 scFv-human Fc (Fc fusion)
scFv: ELQVVESGGGLVQPGGSLRLSCAASGFTFSTNYMNWVRQAPGKGLEWVSGITSHGARTYYADSVKGRFTISRDNSKNTLYLQMNSLKPEDTALYYCARTDHASLDAWGQGTLVTVSSGGGGSGGGGSGGGGSQTVVTQEPSLSVSPGGTVTLTCGLSSGSVTSSNYPGWYQQKPGQAPRTLIYNTNSRYSGVPNRFSGSISGNKAALTITGAQPEDEADYYCALYMGSSSYNTVFGGGTHLTVL
notes: also called 011F02; not shown: CH2-CH3 constant domains of human IgG1 (pUPEX50 scFv-Fc fusion vector)
B2: 10B02 scFv-human Fc (Fc fusion)
scFv: QVQLVESGGGLVQPGGSLRVSCAASGFTFSYHYMNWVRQAPGKGLEWVSGISAGGGRTYYADSVKGRFTISRDNAKNTLYLQMNSLNAEDTALYYCARVHGITNDYWGQGTQVTVSSGGGGSGGGGSGGGGSQSALTQPPSVSGSPGKTVTISCAGTSSDVGYGNYVSWYQQLPGMAPKLLIYEVNKRASGITDRFSGSKSGNTAFLTISGLQSEDEADYYCASYRNSNNWVFGGGTHLTVL
notes: also called 010B02; not shown: CH2-CH3 constant domains of human IgG1 (pUPEX50 scFv-Fc fusion vector)
B3: 8H11 scFv-human Fc (Fc fusion)
scFv: ELQLVESGGGLVQPGGSLRLSCAASGFTFSTNYMNWVRQAPGKGLEWVSGITSGGGRTYYADSVKGRFTISRDNAKNTLYLQMNSLKPEDTALYYCARTDHAWLDAWGQGTLVTVSSGGGGSGGGGSGGGGSQAGLTQPPSVSGTLGKTVTISCAGTSSDVGYGNYVSWYQQLPGTAPKLLIYAVSTRASGIPDRFSGSKSGNTASLTISGLLSEDEADYYCASYRSSNNYVFGGGTKLTVL
notes: also called 008H11; not shown: CH2-CH3 constant domains of human IgG1 (pUPEX50 scFv-Fc fusion vector)
B4: 7B07 scFv-human Fc (Fc fusion)
scFv: QVQLVESGGGLVQPGGSLRLSCAASGFTFRSYDMSWVRQAPGKGPEWVSAIKNGGGITYYADSVKGRFTISRDNAKNTLYLQMNSLKPEDTAVYYCATTHGIGTLGFGSWGQGTQVTVSSGGGGSGGGGSGGGGSSYELTQSASVSVALTQTAKITCDGNNIGSKSAQWYQQKPGQAPALVIYADEYRPEGIPERFSGSNSGNTATLIISGAQAEDEADYYCQVWDGSAAVFGRGTHLTVL
notes: also called 007B07; not shown: CH2-CH3 constant domains of human IgG1 (pUPEX50 scFv-Fc fusion vector)
B5: 11F12 scFv-human Fc (Fc fusion)
scFv: QVQLQESGGGLVQPGGSLRLSCAASGFTFSTNYMNWVRQAPGKGLEWVSGITSGGGRTYYADSVKGRFTISRDNAKNTLYLQMNSLKPEDTALYYCARTDHAWLDAWGQGTLVTVSSGGGGSGGGGSGGGGSHSAVTQPPSVSGTLGKTVTISCAGTSSDVGYGNYVSWYQHLPGTAPKLLIYAVSTRASGVPDRFSGSKSGNTASLTISGLQSEDEGDYYCASYSVRNNVVFGGGTRLTVL
notes: also called 011F12; not shown: CH2-CH3 constant domains of human IgG1 (pUPEX50 scFv-Fc fusion vector)
B6: 10A06 scFv-human Fc (Fc fusion)
scFv: QVQLVESGGGLVQPGGSLRLSCAASGFTFGNYDMSWVRQAPGKGPEWVSDINSGGGSTYYADSVKGRFTISRDNAKNSLLLQMNSLKPEDTAVYYCATGYTGYYYWGQGTQVTVSSGGGGSGGGGSGGGGSQTVVTQEPSLSVSPGGTVTLTCGLSSGSVTSSNYPAWYQQTPGQAPRALIYSINSRHSGVPDRFSGSISGNKAALTITGAQAEDEADYYCTLYMGTGSNNVVFGGGTHLTVL
notes: also called 010A06; not shown: CH2-CH3 constant domains of human IgG1 (pUPEX50 scFv-Fc fusion vector)

The first assay has as its target T1, cynomolgus galectin-10-His, WGS isoform. Briefly: ELISA, coated antigen 0.2 ug/mL. Here is the method: (§1) In a similar setup to that used during the initial screening, the relative binding properties of the 11 new scFv-human Fc clones were analyzed by ELISA. Briefly, a Maxisorp plate was coated overnight with human or cynomolgus WGS or YRT isoforms of galectin-10-His at 0.2 μg/mL and blocked with PBS 1% casein, before being incubated with a serial dilution of the scFv-human Fc fusion molecules (from 100 nM, dilution 1/5, 8 points of dilutions). After several washing steps, detection of the bound scFv-human Fc was carried out with an anti-human Fc-HRP antibody (Jackson ImmunoResearch, Catalog 109-035-008). Absorbance was measured at 450 nm (reference at 620 nm) with Tecan instrument. Finally, the raw data (OD values) were plotted on GraphPad Prism 7.01. The EC50 values of each clone, calculated with a non-linear regression (log(agonist) vs. response Variable slope (four parameters)) are reported in Table 19 below. As a positive control, clone 6F05 from the previous galectin-10 antibody panel was included.
(An ELISA detects its analyte on a solid surface through an enzyme-linked reagent.)
In the case of B1, the Bmax is 2.5 OD.

For B2, the Bmax stood at 3.3 OD and the EC50 worked out at 0.05 nM.

As to B3, the Bmax stood at 3.1 OD and it took 0.13 nM to reach a half-maximal effect (EC50).

Consider B4, for which the Bmax was 0.6 OD and the EC50 was found to be 0.82 nM.

A further assay has as its target T2, cynomolgus galectin-10-His, YRT isoform. Briefly: ELISA, coated antigen 0.2 ug/mL. The method, then: as §1
The molecule B1 displayed a Bmax of 2.5 OD.

Regarding B2, the Bmax is 3.2 OD and the EC50 is 0.05 nM.

In turn, B3 returned a Bmax of 3.1 OD and an EC50 of 0.1 nM.

B5 yielded a Bmax of 3 OD and a concentration giving a half-maximal response (EC50) of 0.24 nM.

With B4, the Bmax was found to be 0 OD and the binding result is given as “no binding (tested: serial dilution from 100 nM)”.

In the case of B6, the Bmax is 3 OD and the EC50 is 0.04 nM.

A further assay addresses T3, human galectin-10-His. Briefly: ELISA, coated antigen 0.2 ug/mL. Here is the method: as §1
Molecule B1 registered a Bmax of 1.5 OD and a half-maximal effective concentration (EC50) of 0.77 nM.

The molecule B2 came in with a Bmax of 2.2 OD and an EC50 of 0.09 nM.

Take B3: the Bmax came to 2.3 OD and the EC50 was found to be 0.18 nM.

B5 registered a Bmax of 1.8 OD and an EC50 of 0.56 nM.

The molecule B4 showed a Bmax of 0.6 OD and an EC50 of 1.11 nM.

The molecule B6 displayed a Bmax of 1.2 OD and an EC50 of 0.08 nM.

The target of a further assay is T1, cynomolgus galectin-10-His, WGS isoform. Nature of the assay: SPR Biacore (summary table). The method, then: (§2) The binding properties of the scFv-human Fc panel to galectin-10 were analyzed on the Biacore T3000. For this purpose, a CM5 Chip was coated with polyclonal anti-human Fc at 8000 RU, then a fixed concentration of the scFv-human Fc panel (1.5 μg/mL) were captured to reach a binding signal around 150 RU. Finally, a serial dilution of human or cynomolgus WGS isoform of galectin-10-His (serial dilution, 1 over 2 from 5 μg/mL, 6 points of dilution) was injected. Raw data were analyzed via BIA evaluation software with a blank subtraction (4-3). Finally, the kd/KD and Rmax of each scFv-human Fc to galectin-10-His was determined using the Fit Kinetics simultaneous ka/kd/Binding with mass transfer/Local Rmax on BIA evaluation software.
(In general: In SPR one partner is held on a chip, and binding of the other changes the refractive index at the surface.)
As for B1, the Kd is 7.9 nM, the koff was 0.00185 s⁻¹ and the kon stood at 240000 M⁻¹ s⁻¹.

As to B2, the Kd was found to be 1 nM, the koff was found to be 0.0008 s⁻¹ and the kon is 770000 M⁻¹ s⁻¹.

As for B3, the Kd was 0.9 nM, the off-rate constant (koff) is 0.00161 s⁻¹ and the kon is 1.75e+06 M⁻¹ s⁻¹.

Take B4: the Kd is 1.5 nM, the koff came out at 0.0766 s⁻¹ and the kon came to 5e+07 M⁻¹ s⁻¹.

In another assay the target is T3, human galectin-10-His. Briefly: SPR Biacore (summary table). The method, then: as §2
In the case of B1, the Kd came out at 5.4 nM, the koff amounted to 0.00203 s⁻¹ and the kon stood at 370000 M⁻¹ s⁻¹.

B2: the Kd was 1.6 nM, the koff amounted to 0.00081 s⁻¹ and the kon worked out at 500000 M⁻¹ s⁻¹.

For the molecule B3, the Kd was determined as 1.8 nM, the koff came to 0.00082 s⁻¹ and the kon was 453000 M⁻¹ s⁻¹.

As to B5, the Kd is 2.3 nM, the koff was 0.00072 s⁻¹ and the kon worked out at 320000 M⁻¹ s⁻¹.

In the case of B4, the Kd was 0.8 nM, the koff was found to be 0.00124 s⁻¹ and the kon was determined as 1.5e+06 M⁻¹ s⁻¹.

On to B6, for which the Kd stood at 0.3 nM, the koff is 0.00025 s⁻¹ and the kon was determined as 910000 M⁻¹ s⁻¹.

Another assay concerns the target T1, cynomolgus galectin-10-His, WGS isoform. Nature of the assay: SPR Biacore T3000, scFv-human Fc captured. Here is the method:
as §2
For B1, the Kd was found to be 7.9 nM, the off-rate constant (koff) turned out to be 0.00185 s⁻¹ and the kon was found to be 240000 M⁻¹ s⁻¹.

As to B2, the Kd was determined as 1 nM, the koff turned out to be 0.0008 s⁻¹ and the on-rate constant (kon) was 770000 M⁻¹ s⁻¹.

Take B3: the Kd worked out at 0.9 nM, the koff was 0.00161 s⁻¹ and the kon worked out at 1.75e+06 M⁻¹ s⁻¹.

Take B4: the dissociation constant (Kd) stood at 1.5 nM, the koff amounted to 0.0766 s⁻¹ and the kon was 5e+07 M⁻¹ s⁻¹.

Another assay has as its target T3, human galectin-10-His. Nature of the assay: SPR Biacore T3000, scFv-human Fc captured. Here is the method:
as §2
On to B1, for which the Kd was determined as 5.4 nM, the koff turned out to be 0.00203 s⁻¹ and the kon was 370000 M⁻¹ s⁻¹.

Consider B2, for which the Kd is 1.6 nM, the koff worked out at 0.00081 s⁻¹ and the kon was found to be 500000 M⁻¹ s⁻¹.

B3: the Kd worked out at 1.8 nM, the koff was found to be 0.00082 s⁻¹ and the kon stood at 453000 M⁻¹ s⁻¹.

Consider B5, for which the Kd was found to be 2.3 nM, the koff is 0.00072 s⁻¹ and the kon turned out to be 320000 M⁻¹ s⁻¹.

Turning to B4, the Kd was 0.8 nM, the koff came out at 0.00124 s⁻¹ and the kon amounted to 1.5e+06 M⁻¹ s⁻¹.

Regarding B6, the Kd was found to be 0.3 nM, the koff amounted to 0.00025 s⁻¹ and the kon turned out to be 910000 M⁻¹ s⁻¹.

The target of the next assay is T1, cynomolgus galectin-10-His, WGS isoform. Briefly: binding ELISA (summary table). Here is the method: as §1
With B1, a half-maximal response (EC50) required 10.4 nM.

For the molecule B2, a half-maximal response (EC50) required 0.05 nM.

Consider B3, for which the midpoint of the response, the EC50, lay at 0.13 nM.

As to B4, a half-maximal effect (EC50) was put at 0.82 nM.

In another assay the target is T2, cynomolgus galectin-10-His, YRT isoform. Nature of the assay: binding ELISA (summary table). Here is the method:
as §1
As to B2, a half-maximal effect (EC50) was put at 0.05 nM.

Turning to B3, the EC50 was determined as 0.1 nM.

Turning to B5, the EC50 was determined as 0.24 nM. This EC50 lies about 2.4-fold higher than the previous one.

Turning to B6, the EC50 is 0.04 nM.

Another assay has as its target T3, human galectin-10-His. Nature of the assay: binding ELISA (summary table). Here is the method: as §1
Regarding B1, the response was half-maximal at 0.77 nM (EC50). This counts as sub-nanomolar.

In the case of B2, the EC50 was found to be 0.09 nM. Against the preceding molecule, the EC50 is about 8.6-fold lower.

B3 yielded an EC50 of 0.18 nM.

Consider B5, for which the EC50 was determined as 0.56 nM.

B4 yielded an EC50 of 1.11 nM.

Molecule B6 yielded a concentration giving a half-maximal response (EC50) of 0.08 nM. Against the preceding molecule, the EC50 is about 14-fold lower.

As usually defined, the EC50 is the concentration needed to bring the measured effect to its halfway point. One may read the Kd as a measure of binding affinity in units of concentration. By koff is commonly meant a measure of how fast the partners let go of each other. The term kon denotes the rate constant with which the complex forms.
